Source: PMC5766609 (Scientific Reports, 2018)
One block for each molecule: values may come before it. Starred links: 1 amine or outer side, 2 acyl side, 3 side chain; linkers in the order of their positions; H or OH if unused. Non-standard residues stand in square brackets, D forms with d. Residues, ends and D or L forms follow the SMILES beside them. Groups on a side chain read outwards from the residue. No end group written: not given here. *: point of attachment. γGlu = O=C(O)[C@H](CCC(=O)[*:2])N[*:1]; Palmitoyl = CCCCCCCCCCCCCCCC(=O)*

Columns and labels:
[1] = target: T1, human glucagon receptor (GCGR) (Homo sapiens, UniProt P47871); assay: cAMP assay on CHO-JumpIn cells stably transfected with human glucagon receptor (HitHunter cAMP); type: cell-based; settings: for EC50: Table 2, cAMP accumulation, CHO-JumpIn cells with human GCGR, buffer PBS, 0.1% BSA, 100 μM RO 20-1724, 20% serum, 1 hr at RT, value ± spread, read-out: EC50 GCGR;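 on all read-outs here: peptides tested as 4-fold serial dilutions starting from a 2 µM solution, cells exposed 1 hr at RT in darkness, cAMP quantified against a cAMP standard curve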
T1 construct: expressed in transfected cells; host or cells: CHO-JumpIn cells, stably transfected
T1 sequence (P47871 26-477): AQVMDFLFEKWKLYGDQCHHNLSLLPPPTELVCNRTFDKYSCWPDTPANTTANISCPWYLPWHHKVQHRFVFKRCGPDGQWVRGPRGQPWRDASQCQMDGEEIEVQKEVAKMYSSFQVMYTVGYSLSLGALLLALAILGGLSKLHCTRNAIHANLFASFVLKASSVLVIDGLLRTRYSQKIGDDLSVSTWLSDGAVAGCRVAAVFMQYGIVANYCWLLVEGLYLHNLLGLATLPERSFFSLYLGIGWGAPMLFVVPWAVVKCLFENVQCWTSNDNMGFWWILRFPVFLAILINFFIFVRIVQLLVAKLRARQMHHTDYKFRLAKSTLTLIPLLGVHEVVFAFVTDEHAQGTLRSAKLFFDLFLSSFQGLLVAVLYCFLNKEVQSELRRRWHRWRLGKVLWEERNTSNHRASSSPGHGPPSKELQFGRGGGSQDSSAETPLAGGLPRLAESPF
Description: (§1) Briefly, a 2 μM solution of peptide was prepared, and 4-fold serial dilutions were made. 150 nL of the above titration was then dispensed into an Optiplate384 using an Echo555. […] The HitHunter® cAMP Assay kit calibration curve was prepared following the manufacturer’s protocol (DiscoveRx-90-0075L). 30,000 cells/well were added to the peptides, spun briefly at 500 rpm for 15 s and incubated at RT in the dark for 1 hr. The assay was developed as per the manufacturer’s instructions. cAMP accumulation due to GLP1R agonism or GCGR agonism was measured using an EnVision platereader (PerkinElmer), and calibrated using the cAMP standard curve. Data were analyzed using Assay Data Analyzer (ADA).

[2] = target: T2, human GLP-1 receptor (GLP1R) (Homo sapiens, UniProt P43220); assay: cAMP assay on CHO-JumpIn cells stably transfected with human GLP-1 receptor (HitHunter cAMP); type: cell-based; settings: Table 2, cAMP accumulation, buffer PBS, 0.1% BSA, 100 μM RO 20-1724, 20% serum, 1 hr at RT, value ± spread, read-out: EC50 GLP1R;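 further: peptides tested as 4-fold serial dilution series, cells exposed 1 hr at RT in the dark, cAMP quantified against a cAMP standard calibration curve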
T2 construct: expressed in transfected cells; host or cells: CHO-JumpIn cells, stably transfected
T2 sequence (P43220 24-463): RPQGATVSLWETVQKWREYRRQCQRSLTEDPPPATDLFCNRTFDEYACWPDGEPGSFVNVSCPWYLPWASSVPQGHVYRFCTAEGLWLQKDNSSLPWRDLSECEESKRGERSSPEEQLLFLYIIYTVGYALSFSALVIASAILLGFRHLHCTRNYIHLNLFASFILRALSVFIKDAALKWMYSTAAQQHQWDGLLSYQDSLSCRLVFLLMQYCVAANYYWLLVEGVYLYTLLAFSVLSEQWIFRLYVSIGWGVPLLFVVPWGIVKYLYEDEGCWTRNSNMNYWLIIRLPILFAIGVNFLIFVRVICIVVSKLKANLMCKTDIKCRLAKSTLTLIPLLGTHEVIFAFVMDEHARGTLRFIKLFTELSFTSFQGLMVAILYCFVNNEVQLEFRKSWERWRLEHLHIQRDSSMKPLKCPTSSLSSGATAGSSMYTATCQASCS
Description: as §1

[3] = target: human GLP-1 receptor (human) (UniProt P43220)
Sequence of human GLP-1 receptor (human) (P43220 24-463): as above

[4] = target: glucagon receptor (human) (UniProt P47871)
Sequence of glucagon receptor (human) (P47871 26-477): as the sequence (P47871 26-477) above

[5] = target: human GLP-1 receptor (human) (UniProt P43220); remark: listed apart in the source
[6] = target: glucagon receptor (human) (UniProt P47871); remark: listed apart in the source

EC50 [1]: 0.037 ± 0.011 nM
EC50 [2]: 0.056 ± 0.012 nM
Molecule: CC[C@H](C)[C@H](NC(=O)[C@H](CO)NC(=O)[C@H](CC(=O)O)NC(=O)[C@H](CC(C)C)NC(=O)[C@H](Cc1ccc(O)cc1)NC(=O)[C@H](CCCCN)NC(=O)[C@H](CO)NC(=O)[C@H](Cc1ccc(O)cc1)NC(=O)[C@H](CC(=O)O)NC(=O)[C@H](CO)NC(=O)[C@@H](NC(=O)[C@H](Cc1ccccc1)NC(=O)[C@@H](NC(=O)CNC(=O)[C@H](CCC(N)=O)NC(=O)[C@H](CO)NC(=O)[C@@H](N)Cc1c[nH]cn1)[C@@H](C)O)[C@@H](C)O)C(=O)N[C@@H](CCCNC(=N)N)C(=O)N[C@@H](C)C(=O)N[C@@H](CCC(N)=O)C(=O)N[C@@H](CC(=O)O)C(=O)N[C@@H](Cc1ccccc1)C(=O)N[C@H](C(=O)N[C@@H](CCC(N)=O)C(=O)N[C@@H](Cc1c[nH]c2ccccc12)C(=O)N[C@@H](CC(C)C)C(=O)N[C@@H](CCSC)C(=O)N[C@@H](CC(=O)O)C(=O)N[C@H](C(N)=O)[C@@H](C)O)C(C)C [Peptide 18] (H-HSQGTFTSDYSKYLDSIRAQDFVQWLMDT-NH2)

EC50 [1]: > 20 nM
activation of the receptors (in words) ([1]; both receptors (GCGR and GLP1R) not activated): did not activate
EC50 [2]: > 20 nM
Molecule: CC[C@H](C)[C@H](NC(=O)[C@H](Cc1c[nH]c2ccccc12)NC(=O)[C@H](Cc1ccccc1)NC(=O)[C@H](CC(=O)O)NC(=O)[C@H](CCC(N)=O)NC(=O)[C@H](C)NC(=O)[C@H](CCCNC(=N)N)NC(=O)[C@H](CCCNC(=N)N)NC(=O)[C@H](CO)NC(=O)[C@H](CC(=O)O)NC(=O)[C@H](CC(C)C)NC(=O)[C@H](Cc1ccc(O)cc1)NC(=O)[C@H](CCCCN)NC(=O)[C@H](CO)NC(=O)[C@H](Cc1ccc(O)cc1)NC(=O)[C@H](CC(=O)O)NC(=O)[C@H](CO)NC(=O)[C@@H](NC(=O)[C@H](Cc1ccccc1)NC(=O)[C@@H](NC(=O)CNC(=O)[C@H](CCC(N)=O)NC(=O)[C@H](CO)NC(=O)[C@@H](N)Cc1c[nH]cn1)[C@@H](C)O)[C@@H](C)O)C(=O)N[C@@H](CC(=O)O)C(=O)N[C@@H](CC(C)C)C(=O)N[C@@H](CCSC)C(=O)N[C@@H](CC(N)=O)C(=O)N[C@H](C(N)=O)[C@@H](C)O [Peptide 25]

EC50 [1]: 2.24 ± 0.334 nM
EC50 [2]: 0.184 ± 0.006 nM
Molecule: CSCC[C@H](NC(=O)[C@H](CC(C)C)NC(=O)[C@H](Cc1c[nH]c2ccccc12)NC(=O)[C@H](CCC(N)=O)NC(=O)[C@@H](NC(=O)[C@H](Cc1ccccc1)NC(=O)[C@H](CC(=O)O)NC(=O)[C@H](Cc1c[nH]cn1)NC(=O)[C@H](C)NC(=O)[C@H](CCCNC(=N)N)NC(=O)[C@H](CCCNC(=N)N)NC(=O)[C@H](CC(=O)O)NC(=O)[C@H](CCC(=O)O)NC(=O)[C@@H](NC(=O)[C@H](Cc1ccc(O)cc1)NC(=O)[C@H](CCCCN)NC(=O)[C@H](CO)NC(=O)[C@H](Cc1ccc(O)cc1)NC(=O)[C@H](CC(=O)O)NC(=O)[C@H](CO)NC(=O)[C@@H](NC(=O)[C@H](Cc1ccccc1)NC(=O)[C@@H](NC(=O)CNC(=O)[C@H](CCC(N)=O)NC(=O)[C@H](CO)NC(=O)[C@@H](N)Cc1c[nH]cn1)[C@@H](C)O)[C@@H](C)O)C(C)C)C(C)C)C(=O)N[C@@H](CC(N)=O)C(=O)N[C@H](C(N)=O)[C@@H](C)O [Peptide 2] (H-HSQGTFTSDYSKYVEDRRAHDFVQWLMNT-NH2)

EC50 GLP1R (nM); cAMP assay on CHO-JumpIn cells with human GLP1R [3]: 0.039 nM
EC50 GCGR (nM); cAMP assay on CHO-JumpIn cells with human GCGR [4]: 0.078 nM
Molecule: HSQGTFTSDYSKYLDSRRAQDFVQWLINY-NH2 [Peptide 13]

EC50 GLP1R (nM); cAMP assay on CHO-JumpIn cells with human GLP1R [3]: 14.8 nM
EC50 GCGR (nM); cAMP assay on CHO-JumpIn cells with human GCGR [4]: 4.18 nM
Molecule: KALGQFTFTSDYSKYLDSRRAQDFVQWLMNT-NH2 [Peptide 21]

EC50 GLP1R (nM); cAMP assay on CHO-JumpIn cells with human GLP1R [3]: 0.018 nM
EC50 GCGR (nM); cAMP assay on CHO-JumpIn cells with human GCGR [4]: 0.018 nM
Molecule: HSQGTFTSDYSKYLDSRRAHDFVQWLLNT-NH2 [Peptide 11]

EC50 GLP1R (nM); cAMP assay on CHO-JumpIn cells with human GLP1R [3]: 51.9 nM
EC50 GCGR (nM); cAMP assay on CHO-JumpIn cells with human GCGR [4]: 0.027 nM
Molecule: HSQGTFFSDYSKYLDSRRAQDFVQWLLET-NH2 [Peptide 34]

EC50 GLP1R (nM); cAMP assay on CHO-JumpIn cells with human GLP1R [3]: > 200 nM
Molecule: ASMFTFFSDYSKYLDSRRAQDFVQWLMLT-NH2 [Peptide 15]

EC50 GLP1R (nM); cAMP assay on CHO-JumpIn cells with human GLP1R [3]: 0.059 nM
EC50 GCGR (nM); cAMP assay on CHO-JumpIn cells with human GCGR [4]: 0.079 nM
Molecule: HSQGTFTSDYSKYLDSRMAYDFVQWLMNT-NH2 [Peptide 33]

EC50 hGLP1 (nM); cAMP assay on CHO-JumpIn cells with human GLP1R [5]: 0.05 nM
EC50 hGCGR (nM); cAMP assay on CHO-JumpIn cells with human GCGR [6]: 0.023 nM
B1: Peptide 36 (peptide)
peptide: H[dS]QGTFTSDK([γGlu-γGlu-Palmitoyl])SKYLDSRRAHDFVQWLLNT-NH2
modifications: N-terminus assumed
SMILES: CCCCCCCCCCCCCCCC(=O)N[C@@H](CCC(=O)N[C@@H](CCC(=O)NCCCC[C@H](NC(=O)[C@H](CC(=O)O)NC(=O)[C@H](CO)NC(=O)[C@@H](NC(=O)[C@H](Cc1ccccc1)NC(=O)[C@@H](NC(=O)CNC(=O)[C@H](CCC(N)=O)NC(=O)[C@@H](CO)NC(=O)[C@@H](N)Cc1c[nH]cn1)[C@@H](C)O)[C@@H](C)O)C(=O)N[C@@H](CO)C(=O)N[C@@H](CCCCN)C(=O)N[C@@H](Cc1ccc(O)cc1)C(=O)N[C@@H](CC(C)C)C(=O)N[C@@H](CC(=O)O)C(=O)N[C@@H](CO)C(=O)N[C@@H](CCCNC(=N)N)C(=O)N[C@@H](CCCNC(=N)N)C(=O)N[C@@H](C)C(=O)N[C@@H](Cc1c[nH]cn1)C(=O)N[C@@H](CC(=O)O)C(=O)N[C@@H](Cc1ccccc1)C(=O)N[C@H](C(=O)N[C@@H](CCC(N)=O)C(=O)N[C@@H](Cc1c[nH]c2ccccc12)C(=O)N[C@@H](CC(C)C)C(=O)N[C@@H](CC(C)C)C(=O)N[C@@H](CC(N)=O)C(=O)N[C@H](C(N)=O)[C@@H](C)O)C(C)C)C(=O)O)C(=O)O

EC50 GLP1R (nM); cAMP assay on CHO-JumpIn cells with human GLP1R [3]: > 200 nM
EC50 GCGR (nM); cAMP assay on CHO-JumpIn cells with human GCGR [4]: 0.527 nM
Molecule: HSQGTFLHDYYYYLDSRRAQDFVQWLMDT-NH2 [Peptide 17]

EC50 GLP1R (nM); cAMP assay on CHO-JumpIn cells with human GLP1R [3]: 0.184 nM
EC50 GCGR (nM); cAMP assay on CHO-JumpIn cells with human GCGR [4]: 2.24 nM
Molecule: HSQGTFTSDYSKYVEDRRAHDFVQWLMNT-NH2 [Peptide 2]

EC50 GLP1R (nM); cAMP assay on CHO-JumpIn cells with human GLP1R [3]: 16.7 nM
EC50 GCGR (nM); cAMP assay on CHO-JumpIn cells with human GCGR [4]: 2.6 nM
Molecule: INHEQWAFTSDYSKYLDSRRAQDFVQWLMNT-NH2 [Peptide 14]

EC50 GLP1R (nM); cAMP assay on CHO-JumpIn cells with human GLP1R [3]: 1.33 nM
EC50 GCGR (nM); cAMP assay on CHO-JumpIn cells with human GCGR [4]: 0.026 nM
Molecule: HSQGTFTSDYSKYLDIGRAQDFVQWLLNT-NH2 [Peptide 4]

EC50 GLP1R (nM); cAMP assay on CHO-JumpIn cells with human GLP1R [3]: > 200 nM
EC50 GCGR (nM); cAMP assay on CHO-JumpIn cells with human GCGR [4]: 0.026 nM
Molecule: HSQGIFFSDYSKYLDSRRAQDFVQWLMNT-NH2 [Peptide 30]

EC50 GLP1R (nM); cAMP assay on CHO-JumpIn cells with human GLP1R [3]: 0.056 nM
EC50 GCGR (nM); cAMP assay on CHO-JumpIn cells with human GCGR [4]: 0.037 nM
Molecule: HSQGTFTSDYSKYLDSIRAQDFVQWLMDT-NH2 [Peptide 18]

EC50 GLP1R (nM); cAMP assay on CHO-JumpIn cells with human GLP1R [3]: 0.018 nM
EC50 GCGR (nM); cAMP assay on CHO-JumpIn cells with human GCGR [4]: 0.026 nM
Molecule: HSQGTFTSDYSKYLDSKRAHDFVQWLLNT-NH2 [Peptide 24]

EC50 GLP1R (nM); cAMP assay on CHO-JumpIn cells with human GLP1R [3]: 8.96 nM
EC50 GCGR (nM); cAMP assay on CHO-JumpIn cells with human GCGR [4]: > 200 nM
Molecule: HSQGTFTSDYSKYLDSRRAQDFVMTSMNT-NH2 [Peptide 26]

EC50 GLP1R (nM); cAMP assay on CHO-JumpIn cells with human GLP1R [3]: 0.018 nM
EC50 GCGR (nM); cAMP assay on CHO-JumpIn cells with human GCGR [4]: 0.0019 nM
Molecule: HSQGTFTSDYSKYLDSRRAQDFVQWLLDS-NH2 [Peptide 35]

EC50 GLP1R (nM); cAMP assay on CHO-JumpIn cells with human GLP1R [3]: 78.3 nM
EC50 GCGR (nM); cAMP assay on CHO-JumpIn cells with human GCGR [4]: 0.301 nM
Molecule: HSQGTFTSDYIKLLDSRRAQDFVQWLMNT-NH2 [Peptide 7]

EC50 GLP1R (nM); cAMP assay on CHO-JumpIn cells with human GLP1R [3]: 0.038 nM
EC50 GCGR (nM); cAMP assay on CHO-JumpIn cells with human GCGR [4]: 0.057 nM
Molecule: HSQGTFTSDYSKYLDELRAYDFVQWLMNT-NH2 [Peptide 10]

EC50 GLP1R (nM); cAMP assay on CHO-JumpIn cells with human GLP1R [3]: 0.133 nM
EC50 GCGR (nM); cAMP assay on CHO-JumpIn cells with human GCGR [4]: 0.025 nM
Molecule: HSQGTFTSDYSKYLDSLMAQDFVQWLMST-NH2 [Peptide 5]

EC50 GLP1R (nM); cAMP assay on CHO-JumpIn cells with human GLP1R [3]: 16.7 nM
EC50 GCGR (nM); cAMP assay on CHO-JumpIn cells with human GCGR [4]: 8.45 nM
Molecule: HSVGNFWSDYSKYLDSRRAQDFVQWLMLT-NH2 [Peptide 1]

EC50 GLP1R (nM); cAMP assay on CHO-JumpIn cells with human GLP1R [3]: 0.007 nM
EC50 GCGR (nM); cAMP assay on CHO-JumpIn cells with human GCGR [4]: 0.016 nM
Molecule: HSQGTFTSDYSKYLDSRRAQDFVDWLINS-NH2 [Peptide 28]

EC50 GLP1R (nM); cAMP assay on CHO-JumpIn cells with human GLP1R [3]: 0.427 nM
EC50 GCGR (nM); cAMP assay on CHO-JumpIn cells with human GCGR [4]: 1.35 nM
Molecule: HSQGTFTSDYRKYLDERAAWDFVQWLMNT-NH2 [Peptide 3]
